Source: patent US20150355179

Experiments:
[1] = tested on: unlabelled GST-CDKACTH1
[2] = tested on: CDKACT-WWH1 biosensor labelled with Cy5
[3] = tested on: GST-CDKACTH1 labelled with Cy3 (CDKACTH1-Cy3)
[4] = tested on: CDKACT-WWH1 biosensor labelled with Cy3
[5] = tested on: histone H1

Chain of unlabelled GST-CDKACTH1 (chain, as listed by the source): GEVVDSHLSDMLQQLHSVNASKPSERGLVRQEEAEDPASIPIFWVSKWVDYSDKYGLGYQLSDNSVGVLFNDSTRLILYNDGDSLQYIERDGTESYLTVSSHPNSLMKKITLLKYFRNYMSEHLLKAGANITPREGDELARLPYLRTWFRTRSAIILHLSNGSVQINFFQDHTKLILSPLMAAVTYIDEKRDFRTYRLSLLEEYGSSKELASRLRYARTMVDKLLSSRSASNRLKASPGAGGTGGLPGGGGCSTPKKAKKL
Chain of CDKACT-WWH1 biosensor labelled with Cy3 (chain, as listed by the source): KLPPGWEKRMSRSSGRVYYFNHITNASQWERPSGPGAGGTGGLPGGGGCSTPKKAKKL

Row | Substance | competition in the fluorescence kinase assay (phosphorylation of CDKACTH1-Cy3) [1] | radioactive kinase assay (phosphorylation, 30 min at 30 C) [1] | real-time fluorescence kinase assay (Cy5 fluorescence) [2] | real-time fluorescence kinase assay (Cy3 fluorescence) [3] | real-time fluorescence kinase assay (Cy3 fluorescence) [4] | competition in the fluorescence kinase assay (phosphorylation of CDKACTH1-Cy3) [5]
1 | recombinant active CDK2/Cyclin A (GST-CDK2/CIV complexed with His-Cyclin A) | histone and unlabelled sensor prevented full phosphorylation of CDKACTH1 | CDKACT-H1 is phosphorylated by GST-CDK2/Cyclin A and GST-CDK1-Cyclin B in a standard kinase assay | CDKACTWWH1, reports on CDK2/CyclinA activity, through significant changes in fluorescence enhancement | Both CDKACTH1 and CDKACTWWH1 report on CDK2/CyclinA activity | Both CDKACTH1 and CDKACTWWH1 report on CDK2/CyclinA activity, however CDKACTWWH1 yields greater changes in fluorescence enhancement | histone and unlabelled sensor prevented full phosphorylation of CDKACTH1
2 | recombinant CDK1/Cyclin B (GST-CDK1/CIV Cyclin B) | – | CDKACT-H1 is phosphorylated by GST-CDK2/Cyclin A and GST-CDK1-Cyclin B in a standard kinase assay | – | CDK1/Cyclin B indeed phosphorylated CDKACTH1, however in the same conditions as CDK2/Cyclin A it did not induce the same response | – | –
